{"source": "the nanobody polyreactivity screen of Harvey et al. (2022)"}
{"experiment": "yeast display, Sf9 membrane polyspecificity reagent, FACS + sequencing; frameworks hold sequencing errors", "method_in_brief": "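Galactose-induced (36–48 hours) yeast carrying a synthetic nanobody display library were exposed to 10% biotinylated, detergent-solubilized Sf9 membrane reagent at 4 °C for 1 hour. FACS followed streptavidin microbead enrichment, using low and high (top ~1%) gates for expression (anti-HA) and reagent binding (streptavidin). Colony PCR, MiSeq 2 × 250 sequencing and CDR-length filtering followed. Labels for polyreactivity reflect the gate of origin.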"}
{"sequence": "QVQLVESGGGLVQAGGSLRLSCPASGYILHKYAMGSYRQAPGKERELVATISGGGGSTYYADSVKGRFTISRDNAKNTVYLQMNSLKPEDTAVYYCAIEYPWLPRSYEYGGQGTQVTVSS", "polyreactivity (PSR sort gate)": "low polyreactivity"}
{"sequence": "QVQLVESGGGLVQAGGSLRLSCAASGFTFRWYAMGWYRQAPGKERELVARISWDGGSTYYADSVKGRFTISRDNAKNTVYLQMNSLKPEDTAVYDCAKDWYYLRRNYDYWGQGTQVTVSS", "polyreactivity (PSR sort gate)": "high polyreactivity"}
{"sequence": "QVQLVESGGGLDQAGGSLRLSCAASGSTFRWYAMGWYRQAPGKERELVAAISSSGGSTYYADSVKGRFTISRDNAKNTVYLQMNSLKPEDTAVYYCAADFTGPFDYWGQGTQVTVSS", "polyreactivity (PSR sort gate)": "high polyreactivity"}
{"sequence": "QVQLVESGGGLVQAGGSLRLSCAASGRIFWVYAMGWSRQAPGKERERVAAITWRGVSTYFADSVKGRFTISRDNAKNTVYLQMNSLKPEDTAVYYCAVSLYGYSGNYGPYWYDYWGQGTQVTVSS", "polyreactivity (PSR sort gate)": "low polyreactivity"}
{"sequence": "QVQLVESGGGLVQAGGSLRLSCAASGFTFDYNGLGWYRQAPGKERELVAGIRWSGGSTYYADSVKGRFTISRDNAKNTVYLQMNSLKPEDTAVYYCATSQYGYRSWPGLYYWGQGTQVTVSS", "polyreactivity (PSR sort gate)": "low polyreactivity"}
{"sequence": "QVQLVESGGGLVQAGGSLRLSCAASGFIDAYTMGWYRQAPWKERELVAAITWSGGRTYYADSVKGRFTISRDNAKNTVYLQMNSLKPEDTAVYYCAKDVTPYSPDDDYWGQGTQVTVSS", "polyreactivity (PSR sort gate)": "low polyreactivity"}
{"sequence": "QVQLVESGGGLVQAGGSLRLSCAASGFILTSYAMGWNRQAPGKERELVAAISSRGGRTYYADSVKGRFTISRDNAKNTVYLQMNSLKPEDTAVYYCNAVVYVVGDFDYWGQGTQVTVSS", "polyreactivity (PSR sort gate)": "high polyreactivity"}
{"sequence": "QLQHVDSGGGLVQAGGSLRLSCATSGIIFYDYDIGWSRQAPEKESELVARISRNGGRTYYADSVKGRFTISRDNAKNTVYLQMNSLNPEDTAVYYCNGVYFVTTSPGSDYWGQGTQVTVSS", "polyreactivity (PSR sort gate)": "high polyreactivity"}
{"sequence": "QVQLVESGGGLVQAGGSLRLSCAASGRIFGRYAMGWYRQAPGNERELVAAISSTGGRTYYADSVKGRFTISRDNAKNTVYLQMTSLKPEDTAVYYCAATYVHYPSMGYDYWGQGTQVTVSS", "polyreactivity (PSR sort gate)": "high polyreactivity"}
{"sequence": "QVQHLESGGGLVQAGRSLRLSCAASGSTFITNTMGWYIKATGKERELLAAISKSGGSTYYADSVKGRFTISRDNAKNTVYLQMNSLKPEDTAVYYCAADIYVRDRGVKYDYWGQGTQVTVSS", "polyreactivity (PSR sort gate)": "low polyreactivity"}
{"sequence": "QVQLVESGGGLVQAGGSLRLSCAASGSIFGRNAMGWYRQAPGKERELVAGISWSGGSTYYADSVKGRFTISRDNAKNTVYLQMNSLKPEDTAVYYCAADYWTWSGFTYYNYEYWGQGTQVTVSS", "polyreactivity (PSR sort gate)": "high polyreactivity"}
{"sequence": "QVQLVESGGGLVQAGGSLRLICAASRFYTMGWYRQATVKERELVAAISWSGGDTYYADSVKGRFTISRDNAKNTVYLQMNSLKPEDTAVYYCAKKTIGSYVHEPFYYWGQGTQVTVSS", "polyreactivity (PSR sort gate)": "low polyreactivity"}
{"sequence": "QVQLVESGGGLVQAGGSLRLSCAASGRIIRQYAMGWYRKAPGKERELVAVISAGGARTYYADSVKGRFTISRDNAKNTVYLQMNSLKPEDTEVYYCAAELPTSQYDYYYWGQGTQVTVSS", "polyreactivity (PSR sort gate)": "high polyreactivity"}
{"sequence": "QVLLVESGGGLVQAGGSLRLSCAASGFIFFKYAMGWYRQAPGKEREFVAAISKSGTSTYYADSVKGRFTISRDNAKNTVYLQLNILKPEDTAVYDCAARYGRGSAYPEYDYWGQGTQVTVSS", "polyreactivity (PSR sort gate)": "high polyreactivity"}
{"sequence": "QVQLVESGGGLVQAGGSLRLSCAASGSTFVDNAMGWYRQAPGKERELVAAISRGGSTHYADSVKGRFTISRDNAKNTVYLQMNSLKPEDTAVYYCNKDTKRLLWFYKYYYWGQGTQVTVSS", "polyreactivity (PSR sort gate)": "high polyreactivity"}
{"sequence": "QVQLVESGGGIVQAGGSLRLTCAASGSIFVNNAIGWYIQAPGKERELVADIRRSGGNTYYADSVKGRFTISRDNAKNTVYLQMNSLKPEDTAVYYCNVVRRADSIRAKSRDYWGQGTQVTVSS", "polyreactivity (PSR sort gate)": "high polyreactivity"}
{"sequence": "QVQLVESGGGLVQAGGSLRLTCAASGRTFFVYAMGWYRPAPGKERELVASITLSGGSTYYADSVKGRFTISRDNAKNTVYLQMNSLKPEDTAVYYCAKGWSRDNDREREDEYWGQGTQVTVSS", "polyreactivity (PSR sort gate)": "low polyreactivity"}
{"sequence": "QVQLVESGGGLVQAGGSLRLSCAASGFIFRGYAMGLYRQAPGKERELVAAISKSGGSTYYADSVKGRFTISRDNAKNTVYLQMNSLKPEDTAVYYCATDILIDGFYYDYWGQGTQVTVSS", "polyreactivity (PSR sort gate)": "high polyreactivity"}
{"sequence": "QVQLVESGGGLVQAGGSLRLSCAASGRIFRHNAMGWYRQAPGKERELVDAITSRGGTYNAHSVKGRFTISRDNAKITVFLQMTSLNPEETAVYFCNADEALYSSGNKYDYWGQGTQVSVSS", "polyreactivity (PSR sort gate)": "low polyreactivity"}
{"sequence": "QVQLVESGGGLVQAGGSLRLSCAASGSIFVVNAMGWYRQAPGKERELGASISQSGDNTYYADSVKGRFTISRDNAKNTVYLQMISLKTEDTAVYYCNAYGGYPEVDYWGQGTQVTVSS", "polyreactivity (PSR sort gate)": "low polyreactivity"}
{"sequence": "QVQLVESGGGLVQAGGSLRLSCAASGIIFSTYAMGWYRQAPGKERELVAAISYGGGSTYYADSVKGRFTISRDNEKNTVYLQMNSLKPEDTAVYYCAADSYRAYYYWGQGTQVTVSS", "polyreactivity (PSR sort gate)": "high polyreactivity"}
{"sequence": "QVQLVESGGGLVQAGGSLRLSCAGSGRTFQYYAMGCYRQAPGKEMELVAGITGGGSTYYADSVKGRFTISRDNAKNTVYLQMNSLKPEDTAVYYCAADRSYYGYGYWGQGTQVTVSS", "polyreactivity (PSR sort gate)": "low polyreactivity"}
{"sequence": "QVQLVESGGCLVQAGGSLRLSCAASGSIFYYYAMGWYRQAPGKERELVADISISGGSTYYADSVKGRFTISRDNAKNTVYLQMNSLKPEDTAVYYCAATDYLWEPTVSNWGYTFDSWGQGTQVTVSS", "polyreactivity (PSR sort gate)": "low polyreactivity"}
{"sequence": "QVQLVESGGGLEQAGGSIRLNCAASGSTFRYNAMGWYRQARGKERELVAAITWSGGSTYFADSVKGRFTISRDNAKHNVYLQMNSLKAEDTAVYYCAKVYFWGALSPYKYDEDYWGQGTQVTVSS", "polyreactivity (PSR sort gate)": "low polyreactivity"}
{"sequence": "QVQLVESGGGLVQAGGSLRLSCAASGSTSDDNTMGWYRQAPGKERELVAAITWSGGRTSYADSVKGRFTISRDNAKNTVYLQMNSLKPEDTAVYYCAADKSGRGLDYWGQGTQVTVSS", "polyreactivity (PSR sort gate)": "low polyreactivity"}
{"sequence": "QVQLVESGGGLVQAGGSLRLSCAASGLIFSYNAMGWYRQAPGKVRELVATSRRVGSTHYADSVKGRFTISRDNAKNTVYLPMNSLKPEDTAVYDCAARSLRYGRGMYYWGQGTQGTVSS", "polyreactivity (PSR sort gate)": "high polyreactivity"}
{"sequence": "QVQLVESGGGLVQAGGTLRLSCSASGRTFYSYAMGWYRQAPGKERELVAAISYTGASTFYADSVKGRFTISRDNAKNTVYLQMNSLIPEDTAVYYCAAESQPSYGETDEYWGQGTQVTVSS", "polyreactivity (PSR sort gate)": "high polyreactivity"}
{"sequence": "QVQLVESGGGLVQAGGSLRLSCAASGIILRRYAMGWYRQAPGKERELVARISYRGGRTNYADSVKGRFTISRDNAKNTVYLQMNSLKPEDTAVYYCAAVAWYYHEGTAYNYWGQGTQVTVSS", "polyreactivity (PSR sort gate)": "high polyreactivity"}
{"sequence": "QVQLVESGGGLVQAGGSLRLSCAASGRIFPDYDMGWYRQAPGKERELVAAITQRGGSTYADSVKGRFTISRDNAKNTVYLQMNSLKPEDTAVYYCAREYYEGYEYWGQGTQVTVSS", "polyreactivity (PSR sort gate)": "low polyreactivity"}
{"sequence": "QVQLVETGGGLVQAGGSLRLSCAASGRIFYYNTMGWYRQAPGKERELVAAISSTASTTYADSVKGRFTISRDNAKNTVYLQMNSLKPEDTAVYYCAADHRYHWAYPRGYYYWGQGTQVTVSS", "polyreactivity (PSR sort gate)": "high polyreactivity"}
{"sequence": "QVQLVESGGGLVQAGGSLRLSCAASGSIFPSYAMGWYRQAPGKERELVAAISVSGGSTYYADSVKGRFTISRDNAKNTVYLQMNSLKPEDTAVYYCAAQHGYPRYYYWGQGTQVTVSS", "polyreactivity (PSR sort gate)": "high polyreactivity"}
{"sequence": "QVQLVESGGGLVQAGGSLRLSCAASGRIFNYNAMGWYRQAPGKERELVAAIDWSGGRTYYADSVKGRFTISRDNAKNTVYLQMNSLKPEDTAVYYCNTVGYSLRLRTGGYWGQGTQVTVSS", "polyreactivity (PSR sort gate)": "high polyreactivity"}
{"sequence": "QVQLVESGGGLVQAGGSLRLSCAASGFTFKRNGMGWYRQAPGKERELVAAISSSGGNTYYADSVKGRFTISRDNAKNTVYLQMNSLKPEDTAVYDCAAASRYFDRDYWGQGTQVTVSS", "polyreactivity (PSR sort gate)": "high polyreactivity"}
{"sequence": "QVQLVESGGGLVQAGGSLRLSCAASGGIFGYYAMGWYRQAPGTEREFVAAITARGGRTYYADSVKGRFTISRDNAKNTVYLQMNSLKPEDTAVYDCAAYSPVWGRYYHRVERDYWGQGTQVTVSS", "polyreactivity (PSR sort gate)": "high polyreactivity"}
{"sequence": "QVQLVESGGGLVQAGCSLRLSCAASGSIFARYAMGWSRQAPGKERELVAAINSTVSTNYADSVKGRFTISRDNAKNTVYLQMNSLKTEDTAVYYCAVDIVRGGRDSWGQGTQVTVSS", "polyreactivity (PSR sort gate)": "low polyreactivity"}
{"sequence": "QVQLVESGGGLVQAGGSLRIRSAASGGIIWWNAMGWYIQAPGKERELVAAISRSGGTTYYADSVKGRFTISRDNEKNSVYLQMNSLKPEDTAVYFCAAQYRYPGFNYWGQGSQVTVSS", "polyreactivity (PSR sort gate)": "high polyreactivity"}
{"sequence": "QVQLVESGGGLVQAGGSLRLSCAASGRTFRVYAMGWYRQAPGKERELVATITSSGGSTYYADSVKGRFTISRDNAKNTVYLQMNSLKPEDTAVYYCNVSVYYNYDSSYYYWGQGTQVTVSS", "polyreactivity (PSR sort gate)": "low polyreactivity"}
{"sequence": "QVQLVESGGGIVQAGGSLRLSCAASGSTFPPNAMGWYRQAPGKERELVAGINGSGGRTYYADSVKGRFTISRDNAKNTVYLQMNSLKPVDTAVYYCATRLRSEYYYNKWYYHWGQGTQVTVSS", "polyreactivity (PSR sort gate)": "high polyreactivity"}
{"sequence": "QVQLVESGGGLVQAGGSLRLSCAVSGRIFRRNVMGWYRQAPGKDRELVAGISDSGDSTYYADSVKVRFTISRDNAKNTVYLQMNSLKPEDTAVYYCNARYSTTYYGTIYRGMDYWGQGTQVNVSS", "polyreactivity (PSR sort gate)": "high polyreactivity"}
{"sequence": "QVQLVESGGGLVQAGGSLRLSCAASGSILWEYAMGWYRQAHGKERELVATISSGGCSTNYADSVKGRFTISRDNAKHNFYLPMKSLKPEDTAVYYCNALTSYLVTYEFDSWGIGTQVTVSS", "polyreactivity (PSR sort gate)": "low polyreactivity"}
{"sequence": "QVQLVESGGGLVQAGGSLRLSCAASGSIFPHYAMGWYRQAPGKEREFVATISGSTGRTYYADSVKGRFTISRDNAKNTVYLQMNSLKPEDTAVYYCATSVGYYLPPIKYDYWGQGTQVTVSS", "polyreactivity (PSR sort gate)": "low polyreactivity"}
{"sequence": "QVQLVESGGGLVQAGGSLRLSCAASGLIFSSYAMGLNRQAPGKEREFVAAISRTGGITYYADSVKGRFTISRDYAKNTVYLQMNSLKPEDTAVYYCNARWYDPTLKVGYWGQVTQVTVSS", "polyreactivity (PSR sort gate)": "high polyreactivity"}
{"sequence": "QVQHVQTLGGLDQAGGSLRLSFSDSGSNFGYYSIVLYRLAPGKERELVAAITGSGGGTYYADSVKGRLTISRDNAKNTVYLQMNSLKPEDTAVYYCAKDRNYRIYWGEYWGHGTQVTVSS", "polyreactivity (PSR sort gate)": "low polyreactivity"}
